Test results as given in US20210269525A1 (BIOCYTOGEN PHARMACEUTICALS BEIJING, published 2021).
Where a chain is given by its changes, count along the chain named.

T1: Cynomolgus CD3 epsilon Protein, His Tag (Acrobiosystems, Cat #CDE-05226) (cynomolgus (Macaca fascicularis), UniProt Q95LI5 22-117)
T1 construct: also called monkey CD3e; not shown: His tag
T1 sequence: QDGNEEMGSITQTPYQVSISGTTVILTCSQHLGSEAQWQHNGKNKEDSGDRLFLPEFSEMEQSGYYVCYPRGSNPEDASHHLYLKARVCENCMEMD

B1: 1B1-H2K2-IgG1-LALA (antibody, V domains shown)
VH: QVQLVQSGAEVKKPGASVKLSCKASGYTFTSYWMHWVRQAPGQGLEWIGNIYPDSGTTNYGEKFKTRVTLTVDTSTSTAYMELSSLRSEDTAVYYCTRDTSGQYYFDYWGQGTLVTVSS
VL: DIVMTQSPDSLAVSAGERVTMNCKSSQSLLNSRTRKNYLAWYQHKPGQSPKLLIYWASTRESGVPDRFSGSGSGTDFTLTISSLQAEDVAVYYCVQSFSLRAFGGGTKVEIK
notes: Humanized; human IgG1 with LALA mutations; also called H2K2 (humanized 1B1)
B2: 1B1-H1K2-IgG1-LALA (antibody, V domains shown)
VH: B1 VH with L20V
VL: B1 VL
notes: Humanized; human IgG1 with LALA mutations; also called H1K2 (humanized 1B1)
B3: 1B1-H4K1-IgG1-LALA (antibody, V domains shown)
VH: B1 VH with K12V, A40R, P41H, V68G
VL: B1 VL with V19A
notes: Humanized; human IgG1 with LALA mutations; also called H4K1 (humanized 1B1)
B4: 1B1-H2K1-IgG1-LALA (antibody, V domains shown)
VH: B1 VH
VL: B1 VL with V19A
notes: Humanized; human IgG1 with LALA mutations; also called H2K1 (humanized 1B1)
B5: 1B1-H1K3-IgG1-LALA (antibody, V domains shown)
VH: B1 VH with L20V
VL: B1 VL with L84V, V109L
notes: Humanized; human IgG1 with LALA mutations; also called H1K3 (humanized 1B1)
B6: 1B1-H2K3-IgG1-LALA (antibody, V domains shown)
VH: B1 VH
VL: B1 VL with L84V, V109L
notes: Humanized; human IgG1 with LALA mutations; also called H2K3 (humanized 1B1)
B7: 1B1-H4K2-IgG1-LALA (antibody, V domains shown)
VH: B1 VH with K12V, A40R, P41H, V68G
VL: B1 VL
notes: Humanized; human IgG1 with LALA mutations; also called H4K2 (humanized 1B1)
B8: 1B1-H4K3-IgG1-LALA (antibody, V domains shown)
VH: B1 VH with K12V, A40R, P41H, V68G
VL: B1 VL with L84V, V109L
notes: Humanized; human IgG1 with LALA mutations; also called H4K3 (humanized 1B1)
B9: 1B1-H1K1-IgG1-LALA (antibody, V domains shown)
VH: B1 VH with L20V
VL: B1 VL with V19A
notes: Humanized; human IgG1 with LALA mutations; also called H1K1 (humanized 1B1)

The binders below were run against T2, human CD3e (T-cell surface glycoprotein CD3 epsilon chain) (human, UniProt P07766 23-207) (assay: cell-based or functional assay).

Binder	EC50, luciferase of Jurkat-Luc-NFAT cells; antibody from supernatant [µg/mL]
B1	> 5.24
B2	> 3.08
B3	2.4
B4	> 2.79
B5	> 6.94
B6	> 16.7
B7	> 3
B8	> 4.54
B9	1.42

Each binder was assayed against T2, human CD3e (T-cell surface glycoprotein …) (assay: flow cytometry, human PBMC, antibody 1 µg/mL, anti-human IgG Fc-Alexa Fluor647 (1:500), anti-hTcRβ-PerCP (1:30)).
Experimental: (§1) PBMC cells were collected from a human subject. After being thawed, the cells were cultured for 3-4 hours. The medium was then discarded, and the cells were resuspended in phosphate-buffered saline (PBS). The cell concentration was then adjusted to 2×10⁶/25 μl PBS.
(§2) A 96-well plate was prepared. 25 ul of cell suspension was added to each well. […] The cells and the antibodies were incubated. After centrifuge, the residues were discarded. The samples were washed again. 25 ul of PBS was then added to each well to resuspend cells.
(§3) Anti-human IgG Fc-Alexa Fluror647 (1:500) and anit-hTcRβ PerCP (1:30) were then added to each well. The cells and the antibodies were incubated and then the cells were washed again by PBS. 300 ul of PBS was then added to each well to resuspend the cells. FACS was performed.

Binder	upper left quadrant, percent of cells AF647+ / hTcRβ-PerCP- [%]	upper right quadrant, percent of cells AF647+ / hTcRβ-PerCP+ [%]
B1	10.2	61
B2	9.83	62.4
B3	10.2	64.4
B4	10.8	61.5
B5	11	58.6
B6	10.4	60.6
B7	10.4	61.7
B8	10.2	61.9
B9	12	58

These binders were tested against T1, Cynomolgus CD3 epsilon Protein, His Tag … (assay: SPR (Biacore), cynomolgus CD3e His tag).
Experimental: The binding affinity of the anti-hCD3e antibodies with monkey CD3e (Cynomolgus CD3 epsilon Protein (SEQ ID NO: 39 AA Gln 22-Asp 117), His Tag, Acrobiosystems, Cat #CDE-05226) were also measured using surface plasmon resonance (SPR) using Biacore (Biacore, INC, Piscataway N.J.) by the methods as described in the examples.

Binder	Kd [nM]	koff [s⁻¹]	kon [M⁻¹ s⁻¹]
B1	6.66	0.000665	99800
B2	7.59	0.00072	94900
B4	7.03	0.000999	142000
B5	4.39	0.000739	169000
B6	5.39	0.000591	110000
B9	9.51	0.000869	91400

What follows are binders tested against T2, human CD3e (T-cell surface glycoprotein …) (assay: flow cytometry, human PBMC, antibody 10 µg/mL, anti-human IgG Fc-Alexa Fluor647 (1:500), anti-hTcRβ-PerCP (1:30)).
Experimental: as §1
A 96-well plate was prepared. 25 ul of cell suspension was added to each well. Anti-hCD3e antibodies with different combinations of humanized 1B1 heavy chain variants and humanized 1B1 light chain variants were diluted to 20 ug/ml (2×) in PBS, and were added to the 96-well plate. The cells and the antibodies were incubated. After centrifuge, the residues were discarded. The samples were washed again. 25 ul of PBS was then added to each well to resuspend cells.
as §3

Binder	upper left quadrant, percent of cells AF647+ / hTcRβ-PerCP- [%]	upper right quadrant, percent of cells AF647+ / hTcRβ-PerCP+ [%]
B1	9.49	63.3
B2	9.94	63.5
B3	8.51	64.1
B4	8.53	65.4
B5	10.5	60
B6	10.9	61.2
B7	11	59.7
B8	10.7	62.4
B9	8.68	61.6

These binders were tested against T2, human CD3e (T-cell surface glycoprotein …) (assay: flow cytometry, human PBMC, antibody 0.1 µg/mL, anti-human IgG Fc-Alexa Fluor647 (1:500), anti-hTcRβ-PerCP (1:30)).
Experimental: as §1, §2, §3

Binder	upper left quadrant, percent of cells AF647+ / hTcRβ-PerCP- [%]	upper right quadrant, percent of cells AF647+ / hTcRβ-PerCP+ [%]
B1	14.1	47.1
B2	11.6	58.1
B3	13.1	54.1
B4	9.82	59.2
B5	13.9	50
B6	10.8	59.1
B7	12.6	54
B8	11.9	54.7
B9	11.9	54.8

The binders below were run against T3, monkey CD3e (Macaca fascicularis) on PBMC (Macaca fascicularis, UniProt Q95LI5 22-198) (assay: flow cytometry, Macaca fascicularis PBMC, antibody concentration not given, anti-human IgG Fc-Alexa Fluor647 (1:500), anti-hTcRβ-PerCP (1:30)).
T3 construct: Target on PBMC from Macaca fascicularis; also called mfCD3e; monkey PBMC
Experimental: A 96-well plate was prepared. 25 ul of cell suspension was added to each well. Anti-hCD3 antibodies were added to the 96-well plate. The cells and the antibodies were incubated for 15 minutes at 4° C. 185 ul PBS was then added to each well. After centrifuge at 2000 rpm for 5 minutes, the medium was discarded. The samples were washed again. 25 ul of PBS was then added to resuspend cells.
Anti-human IgG Fc-Alexa Fluror647 (1:500) and anti-hTcRβ PerCP (1:30) were then added to each well. The cells and the antibodies were incubated for 15 minutes at 4° C. 185 ul PBS was then added to each well. After centrifuge, the residues were discarded. The samples were washed again. 25 ul of PBS was then added to resuspend cells. […] In contrast, anti-hTcRβ PerCP cannot bind to monkey PBMC.

Binder	upper left quadrant, percent of cells AF647+ / hTcRβ-PerCP- [%]	upper right quadrant, percent of cells AF647+ / hTcRβ-PerCP+ [%]
B1	84.5	11.1
B2	80.5	14.9
B3	78.5	18.3
B4	71	25.6
B5	83.3	13.6
B6	88.3	8.61
B7	73.2	24.4
B8	87.1	10.1
B9	69.5	26.2

Each binder was assayed against T4, Histidine-tagged human CD3e protein (human, UniProt P07766 23-126) (assay: SPR (Biacore), human CD3e).
T4 construct: also called hCD3e-His; not shown: His tag

Binder	Kd [nM]	koff [s⁻¹]	kon [M⁻¹ s⁻¹]
B1	1.65	0.000881	535000
B2	1.2	0.000669	558000
B3	0.809	0.000653	807000
B4	1.49	0.000862	579000
B5	3.28	0.00051	155000
B6	1.01	0.000651	644000
B7	0.959	0.000614	640000
B8	1.16	0.000583	502000
B9	1.42	0.000621	438000
